{
  "source": "patent US20020086018A1",
  "key": {"[1]": {"target": "mBCMA-Fc (soluble murine BCMA-Fc) (mouse)", "assay": "BIAcore 2000; BCMA-Fc immobilised on CM5, Flag-APRIL as analyte, 1:1 Langmuir model"}, "[2]": {"target": "huBCMA-Fc (soluble human BCMA-Fc receptor fusion protein) (human)", "assay": "BIAcore 2000; BCMA-Fc immobilised on CM5, Flag-APRIL as analyte, 1:1 Langmuir model"}},
  "data": [
    {"substance": "Soluble murine APRIL-Flag protein (FLAG-tagged soluble mouse G70) (ligand)", "values": [
      {"measurement": "Kd", "setting": "[1]", "value": 0.25, "unit": "nM"},
      {"measurement": "Kd", "setting": "[2]", "value": 0.29, "unit": "nM"}
    ]}
  ]
}
